Here are results for 27 molecules from publication PMC10786891, “Massively parallel profiling of RNA-targeting CRISPR-Cas13d”.

The labels stand for the following.
T1: EsCas13d, nuclease-dead (Eubacterium siraeum, UniProt B0MS50, R295A;H300A;R849A;H854A)
T1 sequence: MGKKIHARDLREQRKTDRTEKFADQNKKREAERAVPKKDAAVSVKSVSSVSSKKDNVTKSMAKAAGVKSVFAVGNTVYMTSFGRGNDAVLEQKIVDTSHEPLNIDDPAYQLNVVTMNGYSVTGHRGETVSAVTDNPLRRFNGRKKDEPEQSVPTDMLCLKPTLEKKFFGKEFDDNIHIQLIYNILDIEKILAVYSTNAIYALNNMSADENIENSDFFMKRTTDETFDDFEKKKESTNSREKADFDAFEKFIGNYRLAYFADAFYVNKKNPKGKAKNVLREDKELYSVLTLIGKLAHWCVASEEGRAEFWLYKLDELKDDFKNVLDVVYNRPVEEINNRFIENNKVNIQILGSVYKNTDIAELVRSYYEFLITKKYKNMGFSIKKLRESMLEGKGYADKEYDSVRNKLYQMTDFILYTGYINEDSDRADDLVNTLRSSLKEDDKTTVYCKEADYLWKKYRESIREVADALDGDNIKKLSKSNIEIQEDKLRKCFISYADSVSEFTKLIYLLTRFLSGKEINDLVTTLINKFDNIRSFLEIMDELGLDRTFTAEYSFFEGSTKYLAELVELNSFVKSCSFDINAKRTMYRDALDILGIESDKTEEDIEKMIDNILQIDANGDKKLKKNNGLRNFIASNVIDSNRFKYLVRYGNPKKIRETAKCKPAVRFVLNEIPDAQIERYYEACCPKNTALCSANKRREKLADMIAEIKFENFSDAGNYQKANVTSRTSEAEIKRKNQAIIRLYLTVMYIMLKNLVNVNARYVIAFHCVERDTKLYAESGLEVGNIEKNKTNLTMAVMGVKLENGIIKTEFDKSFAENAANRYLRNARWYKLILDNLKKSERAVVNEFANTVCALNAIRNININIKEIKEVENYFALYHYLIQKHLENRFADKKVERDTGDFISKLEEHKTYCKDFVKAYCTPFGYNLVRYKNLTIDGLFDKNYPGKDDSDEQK

B1: target 1 C6U,C21U (mixed)
RNA 1: CACCCGUGCAAAAAUGCAGGGGUCUAAAACUGAGCGGAUAACCUCUCUAUGG
RNA 2: GGGAAUGGAUCCACAUCUACGAAUUCGUACUAUAGAGAGGUUAUCUGCUCACCGAGAUCGGAAGAGCACACGU
B2: target 1 insG 3' of 6,insA 3' of 6 (mixed)
RNA 1: CACCCGUGCAAAAAUGCAGGGGUCUAAAACUGAGCGGAUAACCUCUCUAUGG
RNA 2: GGGAAUGGAUCCACAUCUACGAAUUCGUACCAUAGAGAGGUUAUCCGAGCUCACCGAGAUCGGAAGAGCACACGU
B3: target 1 insC 3' of 15,insG 3' of 9 (mixed)
RNA 1: CACCCGUGCAAAAAUGCAGGGGUCUAAAACUGAGCGGAUAACCUCUCUAUGG
RNA 2: GGGAAUGGAUCCACAUCUACGAAUUCGUACCAUAGAGCAGGUUAGUCCGCUCACCGAGAUCGGAAGAGCACACGU
B4: target 1 insU 3' of 15,insC 3' of 13 (mixed)
RNA 1: CACCCGUGCAAAAAUGCAGGGGUCUAAAACUGAGCGGAUAACCUCUCUAUGG
RNA 2: GGGAAUGGAUCCACAUCUACGAAUUCGUACCAUAGAGUAGCGUUAUCCGCUCACCGAGAUCGGAAGAGCACACGU
B5: target 1 C7G,G15A (mixed)
RNA 1: CACCCGUGCAAAAAUGCAGGGGUCUAAAACUGAGCGGAUAACCUCUCUAUGG
RNA 2: GGGAAUGGAUCCACAUCUACGAAUUCGUACCAUAGAAAGGUUAUGCGCUCACCGAGAUCGGAAGAGCACACGU
B6: target 1 A9U,G15U (mixed)
RNA 1: CACCCGUGCAAAAAUGCAGGGGUCUAAAACUGAGCGGAUAACCUCUCUAUGG
RNA 2: GGGAAUGGAUCCACAUCUACGAAUUCGUACCAUAGAUAGGUUUUCCGCUCACCGAGAUCGGAAGAGCACACGU
B7: target 1 complement block 6-10 (mixed)
RNA 1: CACCCGUGCAAAAAUGCAGGGGUCUAAAACUGAGCGGAUAACCUCUCUAUGG
RNA 2: GGGAAUGGAUCCACAUCUACGAAUUCGUACCAUAGAGAGGUAUAGGGCUCACCGAGAUCGGAAGAGCACACGU
B8: target 1 C6G,G12C (mixed)
RNA 1: CACCCGUGCAAAAAUGCAGGGGUCUAAAACUGAGCGGAUAACCUCUCUAUGG
RNA 2: GGGAAUGGAUCCACAUCUACGAAUUCGUACCAUAGAGAGCUUAUCGGCUCACCGAGAUCGGAAGAGCACACGU
B9: target 1 insC 3' of 8,insA 3' of 6 (mixed)
RNA 1: CACCCGUGCAAAAAUGCAGGGGUCUAAAACUGAGCGGAUAACCUCUCUAUGG
RNA 2: GGGAAUGGAUCCACAUCUACGAAUUCGUACCAUAGAGAGGUUAUCCCAGCUCACCGAGAUCGGAAGAGCACACGU
B10: target 1 insG 3' of 11,insG 3' of 4 (mixed)
RNA 1: CACCCGUGCAAAAAUGCAGGGGUCUAAAACUGAGCGGAUAACCUCUCUAUGG
RNA 2: GGGAAUGGAUCCACAUCUACGAAUUCGUACCAUAGAGAGGUGUAUCCGCGUCACCGAGAUCGGAAGAGCACACGU
B11: target 1 A1U,G5A (mixed)
RNA 1: CACCCGUGCAAAAAUGCAGGGGUCUAAAACUGAGCGGAUAACCUCUCUAUGG
RNA 2: GGGAAUGGAUCCACAUCUACGAAUUCGUACCAUAGAGAGGUUAUCCACUCUCCGAGAUCGGAAGAGCACACGU
B12: target 1 insU 3' of 18,insG 3' of 1 (mixed)
RNA 1: CACCCGUGCAAAAAUGCAGGGGUCUAAAACUGAGCGGAUAACCUCUCUAUGG
RNA 2: GGGAAUGGAUCCACAUCUACGAAUUCGUACCAUAUGAGAGGUUAUCCGCUCAGCCGAGAUCGGAAGAGCACACGU
B13: target 1 C6A,G12A (mixed)
RNA 1: CACCCGUGCAAAAAUGCAGGGGUCUAAAACUGAGCGGAUAACCUCUCUAUGG
RNA 2: GGGAAUGGAUCCACAUCUACGAAUUCGUACCAUAGAGAGAUUAUCAGCUCACCGAGAUCGGAAGAGCACACGU
B14: target 1 G5U,C22A (mixed)
RNA 1: CACCCGUGCAAAAAUGCAGGGGUCUAAAACUGAGCGGAUAACCUCUCUAUGG
RNA 2: GGGAAUGGAUCCACAUCUACGAAUUCGUAACAUAGAGAGGUUAUCCUCUCACCGAGAUCGGAAGAGCACACGU
B15: target 1 insC 3' of 13,insG 3' of 10 (mixed)
RNA 1: CACCCGUGCAAAAAUGCAGGGGUCUAAAACUGAGCGGAUAACCUCUCUAUGG
RNA 2: GGGAAUGGAUCCACAUCUACGAAUUCGUACCAUAGAGAGCGUUGAUCCGCUCACCGAGAUCGGAAGAGCACACGU
B16: target 1 insA 3' of 17,insU 3' of 4 (mixed)
RNA 1: CACCCGUGCAAAAAUGCAGGGGUCUAAAACUGAGCGGAUAACCUCUCUAUGG
RNA 2: GGGAAUGGAUCCACAUCUACGAAUUCGUACCAUAGAAGAGGUUAUCCGCUUCACCGAGAUCGGAAGAGCACACGU
B17: target 1 insU 3' of 21 (mixed)
RNA 1: CACCCGUGCAAAAAUGCAGGGGUCUAAAACUGAGCGGAUAACCUCUCUAUGG
RNA 2: GGGAAUGGAUCCACAUCUACGAAUUCGUACCUAUAGAGAGGUUAUCCGCUCACCGAGAUCGGAAGAGCACACGU
B18: target 1 C2G,C4U (mixed)
RNA 1: CACCCGUGCAAAAAUGCAGGGGUCUAAAACUGAGCGGAUAACCUCUCUAUGG
RNA 2: GGGAAUGGAUCCACAUCUACGAAUUCGUACCAUAGAGAGGUUAUCCGUUGACCGAGAUCGGAAGAGCACACGU
B19: target 1 insA 3' of 21,insU 3' of 20 (mixed)
RNA 1: CACCCGUGCAAAAAUGCAGGGGUCUAAAACUGAGCGGAUAACCUCUCUAUGG
RNA 2: GGGAAUGGAUCCACAUCUACGAAUUCGUACCAAUUAGAGAGGUUAUCCGCUCACCGAGAUCGGAAGAGCACACGU
B20: target 1 insG 3' of 22,insC 3' of 18 (mixed)
RNA 1: CACCCGUGCAAAAAUGCAGGGGUCUAAAACUGAGCGGAUAACCUCUCUAUGG
RNA 2: GGGAAUGGAUCCACAUCUACGAAUUCGUACGCAUACGAGAGGUUAUCCGCUCACCGAGAUCGGAAGAGCACACGU
B21: target 1 insU 3' of 18,insA 3' of 2 (mixed)
RNA 1: CACCCGUGCAAAAAUGCAGGGGUCUAAAACUGAGCGGAUAACCUCUCUAUGG
RNA 2: GGGAAUGGAUCCACAUCUACGAAUUCGUACCAUAUGAGAGGUUAUCCGCUCAACCGAGAUCGGAAGAGCACACGU
B22: target 1 U8A,A20U (mixed)
RNA 1: CACCCGUGCAAAAAUGCAGGGGUCUAAAACUGAGCGGAUAACCUCUCUAUGG
RNA 2: GGGAAUGGAUCCACAUCUACGAAUUCGUACCUUAGAGAGGUUAACCGCUCACCGAGAUCGGAAGAGCACACGU
B23: target 1 insC 3' of 1 (mixed)
RNA 1: CACCCGUGCAAAAAUGCAGGGGUCUAAAACUGAGCGGAUAACCUCUCUAUGG
RNA 2: GGGAAUGGAUCCACAUCUACGAAUUCGUACCAUAGAGAGGUUAUCCGCUCACCCGAGAUCGGAAGAGCACACGU
B24: target 1 insA 3' of 21,insA 3' of 3 (mixed)
RNA 1: CACCCGUGCAAAAAUGCAGGGGUCUAAAACUGAGCGGAUAACCUCUCUAUGG
RNA 2: GGGAAUGGAUCCACAUCUACGAAUUCGUACCAAUAGAGAGGUUAUCCGCUACACCGAGAUCGGAAGAGCACACGU
B25: target 1 insU 3' of 18,insC 3' of 1 (mixed)
RNA 1: CACCCGUGCAAAAAUGCAGGGGUCUAAAACUGAGCGGAUAACCUCUCUAUGG
RNA 2: GGGAAUGGAUCCACAUCUACGAAUUCGUACCAUAUGAGAGGUUAUCCGCUCACCCGAGAUCGGAAGAGCACACGU
B26: target 1 C7U,G13A (mixed)
RNA 1: CACCCGUGCAAAAAUGCAGGGGUCUAAAACUGAGCGGAUAACCUCUCUAUGG
RNA 2: GGGAAUGGAUCCACAUCUACGAAUUCGUACCAUAGAGAAGUUAUUCGCUCACCGAGAUCGGAAGAGCACACGU
B27: target 1 insA 3' of 6,insG 3' of 3 (mixed)
RNA 1: CACCCGUGCAAAAAUGCAGGGGUCUAAAACUGAGCGGAUAACCUCUCUAUGG
RNA 2: GGGAAUGGAUCCACAUCUACGAAUUCGUACCAUAGAGAGGUUAUCCAGCUGCACCGAGAUCGGAAGAGCACACGU

The target of this data set is T1, EsCas13d, nuclease-dead. The data set can be described thus: crRNA (strand 1, pre-loaded); Mg2+; 40 mM Tris-HCl pH 7.5, 150 mM NaCl, 6 mM MgCl2, 1 mM DTT, 0.1% Tween-20, 0.2 mg/ml BSA; 25 C; 10 min per concentration, then washed. The following applies: tags: His6-TwinStrep-SUMO cleaved; N-terminal SNAP kept (SNAP-Surface 488); label: 3' end held by stalled T7 RNA polymerase.
Regarding B1, the Kd (in general, a measure of binding affinity in units of concentration) came to 6.2 ± 0.4 nM. On to B2, for which the affinity, expressed as Kd, was 10.6 ± 1.1 nM. For B3 the value was 20.8 ± 1 nM.

Take B4: the dissociation constant Kd amounted to 19.3 ± 2.7 nM.

B5: the Kd was 22.5 ± 1.6 nM. The molecule B6 yielded a Kd of 46 ± 11 nM. Compared with the last molecule, the Kd is about 2-fold higher. B7: the Kd came out at 10.1 ± 0.6 nM. In the case of B8, the Kd came to 15.1 ± 0.7 nM. For B9, binding was put at a Kd of 17.7 ± 0.9 nM. For B10 the value was 54 ± 13 nM; for B11, 34 ± 6 nM; for B12, 27.4 ± 1.3 nM. Turning to B13, binding was characterised by a dissociation constant (Kd) of 7.07 ± 0.35 nM. Consider B14, for which the Kd came out at 54 ± 14 nM. The molecule B15 registered a Kd of 15.8 ± 1.7 nM. This Kd lies about 3.4-fold lower than the previous one. B16 registered a Kd of 44 ± 5 nM. On to B17, for which the dissociation constant (Kd) is 24 ± 1.6 nM. Against the preceding molecule, the Kd is about 1.8-fold lower. For B18 the value was 54 ± 16 nM; for B19, 19.7 ± 1.9 nM.

On to B20, for which the Kd is 73 ± 23 nM. This Kd lies about 3.7-fold higher than the previous one. For B21 the value was 33.5 ± 2.6 nM. B22: binding was put at a Kd of 80 ± 21 nM. Consider B23, for which the affinity, expressed as Kd, was 9.1 ± 0.6 nM.

Consider B24, for which the Kd is 12.2 ± 0.6 nM. The Kd values of the last two molecules are within 1.5-fold of each other. Consider B25, for which the Kd amounted to 23.5 ± 2 nM. This Kd lies about 1.9-fold higher than the previous one. In turn, B26 had a Kd of 6.2 ± 0.7 nM. This Kd lies about 3.8-fold lower than the previous one.

Molecule B27 registered a Kd of 13.1 ± 0.5 nM.
